Where a SMILES comes first, the peptide text is derived from it. The star is where a group is joined. Cbz = O=C(OCc1ccccc1)*; CH2F = FC*

Holding throughout (type): cell-based, human
For assay [1], the system named is AML blasts. Kind of assay: Functional apoptosis and DNA damage response assay, AML study No. 1 (c-PARP, cleaved caspases, p-Chk2). On the procedure: Multi-parameter flow cytometric analysis was performed on peripheral blasts taken at diagnosis from 9 AML patients who achieved a complete response (CR) and 24 patients who were non-responders (NR) to one cycle of standard 7+3 induction therapy (100-200 mg/m2 cytarabine and 60 mg/m2 daunorubicin). The signaling nodes were organized into 4 biological categories: 1) Protein expression of receptors and drug transporters 2) Response to cytokines and growth factors, 3) Phosphatase activity, and 4) Apoptotic signaling pathways.
A viable cell will be Aqua negative and PARP negative and a measure of cell death is PARP and/or Aqua positivity. “Apoptosis”=% of PARP^−Aqua^−unstim−% of PARP^−Aqua^−Drug.
(§1) Functional assays were performed as previously described. Cells were incubated with modulators (Table 18), at 37° C. for 3-15 minutes, fixed with 1.6% paraformaldehyde (final concentration) for 10 minutes at 37° C., pelleted and permeabilized with 100% ice-cold methanol and stored at −80° C.
The median fluorescence intensity (MFI) was computed for each node from the fluorescence intensity levels for the cells in the myeloid population. The MFI values were then used to compute a variety of metrics by comparing them to baseline or background values, including the unmodulated condition, cellular autofluorescence and antibody isotype controls. The following metrics were computed: • 1. Basal MFI (“Basal”)=log2(MFIUnmodulated Stained)−log2(MFIGated Unstained (Autofluoresence)), designed to measure the basal levels of a certain protein under unmodulated conditions. • 2. Fold Change MFI (“Fold”)=log2(MFIModulated Stained)−log2(MFIUnmodulated Stained), a measure of the change in the activation state of a protein under modulated conditions. • 3. Total Phospho MFI (“TotalPhospho”)=log2(MFIModulated Stained)−log2(MFIGated Unstained (Autofluorescence)), a measure of the total levels of a protein under modulated conditions. • 4. Relative Protein Expression (“Rel. Expression”)=log2(MFIstain)−log2(MFIControl), a measure of the levels of surface marker staining relative to control antibody staining. • 5. […] An additional metric was designed to measure the levels of cellular apoptosis in response to cytotoxic drugs: Quadrant (“Quad”)=a measure of the percentage of cells in a flow cytometry quadrant region defined by p-Chk2 and c-PARP i.e. the % of cells that are both p-Chk2- and c-PARP+.

Assay [2] relates to AML blasts. As to the kind of experiment: SCNP / phospho-flow modulated signaling assay, AML study No. 1 (PBMC at diagnosis, CR vs NR). Conditions: Study No. 1 sensitivity analysis. The source says:
The present illustrative example represents how to analyze cells in one embodiment of the present invention. There are several steps in the process, such as the stimulation step, the staining step and the flow cytometry step. The stimulation step of the phospho-flow procedure can start with vials of frozen cells and end with cells fixed and permeabilized in methanol. Then the cells can be stained with an antibody directed to a particular protein of interest and then analyzed using a flow cytometer.
Frozen cells are thawed in a 37° C. water bath and gently resuspended in the vial and transferred to the 15 mL conical tube. The 15 mL tube is centrifuged at 930 RPM (200×g) for 8 minutes at room temperature. The supernatant is aspirated and the pellet is gently resuspended in 1 mL media A. The cell suspension is filtered through a 70 um cell strainer into a new 15 mL tube. The cell strainer is rinsed with 1 mL media A and another 12 ml of media A into the 15 mL tube. The cells are mixed into an even suspension. A 20 μL aliquot is immediately removed into a 96-well plate containing 180 μL PBS+4% FBS+CD45 Alexa 700+PI to determine cell count and viability post spin. After the determination, the 15 mL tubes are centrifuged at 930 RPM (200×g) for 8 minutes at room temperature. The supernatant is aspirated and the cell pellet is gently resuspended in 4 mL PBS+4 μL Amine Aqua and incubated for 15 min in a 37° C. incubator. 10 mL RPMI+1% FBS is added to the cell suspension and the tube is inverted to mix the cells. The 15 mL tubes are centrifuged at 930 RPM (200×g) for 8 minutes at room temperature. The cells are resuspended in Media A at the desired cell concentration (1.25×10^6/mL). For samples with low numbers of cells (<18.5×10^6), the cells are resuspended in up to 15 mL media. For samples with high numbers of cells (>18.5×10^6), the volume is raised to 10 mL with media A and the desired volume is transferred to a new 15 mL tube, and the cell concentration is adjusted to 1.25×10^6 cells/ml. 1.6 mL of the above cell suspension (concentration at 1.25×10^6 cells/ml) is transferred into wells of a multi-well plate. From this plate, 80 ul is dispensed into each well of a subsequent plate. The plates are covered with a lid (Nunc) and placed in a 37° C. incubator for 2 hours to rest.
A concentration for each stimulant that is five folds more (5×) than the final concentration is prepared using Media A as diluent. 5× stimuli are arrayed into wells of a standard 96 well v-bottom plate that correspond to the wells on the plate with cells to be stimulated.
Adding the stimulant: The cell plate(s) are taken out of the incubator and placed in a 37° C. water bath next to the pipette apparatus. The cell plate is taken from the water bath and gently swirled to resuspend any settled cells. With pipettor, the stimulant is dispensed into the cell plate and vortexed at “7” for 5 seconds. The deep well plate is put back into the water bath.
Adding Fixative: 200 μl of the fixative solution (final concentration at 1.6%) is dispensed into wells and then mixed on the titer plate shaker on high for 5 seconds. The plate is covered with foil sealer and incubated in a 37° C. water bath for 10 minutes. The plate is spun for 6 minutes at 2000 rpm at room temperature. The cells are aspirated using a 96 well plate aspirator (VP Scientific). The plate is vortexed to resuspend cell pellets in the residual volume. The pellet is ensured to be dispersed before the Methanol step (see cell permeabilization) or clumping will occur.
Cell Permeabilization: Permeability agent, for example methanol, is added slowly and while the plate is vortexing. To do this, the cell plate is placed on titer plate shaker and made sure it is secure. The plate is set to shake using the highest setting. A pipetter is used to add 0.6 mls of 100% methanol to the plate wells. The plate(s) are put on ice until this step has been completed for all plates.

The next assay has as its system AML BMMC leukemic blasts. Kind of assay: SCNP modulated signaling assay, AML study No. 2 (BMMC, CR vs NR, clinical sub-groups). The settings on record: Study No. 2, all patients. Here is the method:
Two independent sets of cryopreserved samples were analyzed sequentially. The first set consisted of 35 peripheral blood mononuclear cell (PBMC) samples derived from AML patients. The second set consisted of 134 cryopreserved bone marrow mononuclear cell (BMMC) samples derived from AML patients. These samples were the same samples used in the previous examples. Sample inclusion criteria required collection prior to initiation of induction chemotherapy, AML classification by the French-American-British (FAB) criteria as M0 through M7 (excluding M3) and availability of clinical annotations.
In the first study, induction chemotherapy consisted of at least one cycle of standard cytarabine-based induction therapy (i.e. daunorubicin 60 mg/m^2×3 days, cytarabine 100-200 mg/m^2 continuous infusion×7 days); responses were measured after one cycle of induction therapy. In the second study, cytarabine (200 mg/m^2 to 3 g/m^2) was used in combination with an anthracycline (daunorubicin or idarubicin) or an additional anti-metabolite (e.g. fludarabine or troxacitabine), and sometimes, an experimental agent (Table 16). […] Standard clinical and laboratory criteria were used for defining complete response (CR) in both studies. […] Classified as “CRp,” these samples were included in the CR group for all primary analysis. The univariate analyses were also repeated with the CRp patients classified into the NR sample group for sensitivity analysis.
Cyropreserved samples were thawed at […], washed and centrifuged in PBS, 10% FBS and 2 mM EDTA. The cells were re-suspended, filtered to remove debris and washed in RPMI cell culture media, 1% FBS, then stained with Live/Dead Fixable Aqua Viability Dye to distinguish non-viable cells. The cells were then re-suspended in RPMI, 1% FBS, aliquoted to 100,000 cells/condition and rested for 1-2 hours at 37° C. prior to SCNP assays. Each condition included two to five phenotypic markers for cell population gating (eg, CD45, CD33), up to three intracellular stains or up to three additional surface markers or control antibodies for an eight-color flow cytometry assay.
as §1
Data was acquired using FACS DIVA software on both LSR II and CANTO II Flow Cytometers (BD). For all analyses, dead cells and debris were excluded by forward scatter (FSC), side scatter (SSC), and Amine Aqua Viability Dye measurement. Leukemic cells were identified as cells that lacked the characteristics of mature lymphocytes (CD45^++, CD33^−) and that fit the CD45 and CD33 versus right-angle light-scatter characteristics consistent with myeloid leukemia cells.
The median fluorescence intensity (MFI) was computed for each node from the fluorescence intensity levels for the cells in the myeloid population. The MFI values were then used to compute a variety of metrics by comparing them to baseline or background values, including the unmodulated condition, cellular autofluorescence and antibody isotype controls. The following metrics were computed: • 1. Basal MFI (“Basal”)=log2(MFIUnmodulated Stained)−log2(MFIGated Unstained (Autofluoresence)), designed to measure the basal levels of a certain protein under unmodulated conditions. • 2.

For `CN[C@@H]1C[C@H]2O[C@@](C)([C@@H]1OC)n1c3ccccc3c3c4c(c5c6ccccc6n2c5c31)C(=O)NC4` [Staurosporine], in the assay on AML blasts [1], the “cell death as determined by cleaved PARP and cleaved Caspase 8” value was “failed to undergo cell death”; the “cleaved PARP and caspase 8” value is “significant populations of cells with cleaved PARP and caspase 8”; the “in vitro apoptotic response in the context of FLT3 mutations” value is reported as “greatest apoptotic responses were those that expressed FLT3 ITD”; the “phosphorylated Chk2” value is listed as “increase in phosphorylated Chk2”.

`COC(=O)CC(NC(=O)C(C)NC(=O)C(NC(=O)OCc1ccccc1)C(C)C)C(=O)CF` (stereo not drawn) [Z-VAD, benzyloxycarbonyl-Val-Ala-Asp (OMe) fluoromethylketone] (Cbz-Val-Ala-Asp(OMe)-CH2F; configuration not given here): in the assay on AML blasts [1] (samples 0341, 0521), the “cleavage of caspase 3 and PARP on co-incubation with Z-VAD” value is “inhibited cleavage of caspase 3 and PARP to near completion”. In the assay on AML blasts [1] (samples 8303, 8402), the “PARP cleavage on co-incubation with Z-VAD” value is given as “only partially inhibited”.

B1: IFNg: interferon gamma, cytokine modulator (protein, UniProt P01579 24-161, looked up)
Interferon gamma: QDPYVKEAENLKKYFNAGHSDVADNGTLFLGILKNWKEESDRKIMQSQIVSFYFKLFKNFKDDQSIQKSVETIKEDMNVKFFNSNKKKRDDFEKLTNYSVTDLNVQRKAIHELIQVMAELSPAAKTGKRKRSQMLFRG
For B1, in the assay with AML blasts [2] (CR samples), the “Mean Value of CRs, p-Stat1 Fold” value turned out to be 0.45; the “Mean Value of CRs, p-Stat1 Total Phospho” value came out at 0.67; the “Mean Value of CRs, p-Stat3 Total Phospho” value is reported as 0.68; the “Mean Value of CRs, p-Stat5 Total Phospho” value was 1.62. In the assay on AML blasts [2] (NR samples incl. CRp), the “Mean Value of NRs, p-Stat1 Total Phospho” value is given as 1.27; the “Mean Value of NRs, p-Stat3 Total Phospho” value came out at 1.3; the “Mean Value of NRs, p-Stat5 Total Phospho” value was determined as 2.35. Moreover, the “Mean Value of NRs, p-Stat1 Fold” value with AML blasts [2] (NR samples incl. CRp, negative = down regulation) worked out at 0.91. Also, in the assay with AML BMMC leukemic blasts (CR samples, negative = down regulation), the “Mean Value of CRs, p-Stat3 Fold” value is on record as −0.02. The “Mean Value of NRs, p-Stat3 Fold” value in the assay on AML BMMC leukemic blasts (NR samples) worked out at 0.2.

For the origin of these results see patent US8399206B2, “Methods for diagnosis, prognosis and methods of treatment” (Nodality, Inc., priority 2008, dated 2013).
